Here are results for one molecule from article PMC4102245, “A molecular model for the role of SYCP3 in meiotic chromosome organisation” (eLife, 2014).

The data set addresses T1, SYCP3 dCt6 dBP1+2 (human, UniProt Q8IZU3 1-230, K52A;R53A;R54A;K55A;K56A;R57A;K88A;R89A;K90A;R91A).
T1 sequence: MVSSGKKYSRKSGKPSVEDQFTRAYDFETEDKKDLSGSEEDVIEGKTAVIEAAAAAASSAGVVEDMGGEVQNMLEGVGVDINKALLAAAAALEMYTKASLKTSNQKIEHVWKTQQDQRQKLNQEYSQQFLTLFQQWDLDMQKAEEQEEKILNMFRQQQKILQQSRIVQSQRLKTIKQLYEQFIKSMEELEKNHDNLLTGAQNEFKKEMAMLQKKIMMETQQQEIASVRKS
In words: fluorescence anisotropy; up to 20 uM protein; 20 mM Tris pH 8.0, 150 mM KCl; FA at 25 C with 25 nM DNA (0-20 uM protein); EMSA 5 min at 4 C with 18.7 uM (per bp) DNA (0-40 uM protein), 0.5% agarose, 0.5x TBE. The following applies: protein: recombinant; tags: N-terminal His6, TEV-cleaved; chain copies: 4; label: 5' FAM. (Polarisation of emitted light reports the rotation of a fluorescent probe.)

B1: 60 bp FAM-dsDNA (dsDNA)
DNA 1: ATGGTGTGTGTAGGTTAATGTGAGGAGGAGAGGTGAAGAAGGAGGAGAGAAGAAGGAGGC
DNA 2: GCCTCCTTCTTCTCTCCTCCTTCTTCACCTCTCCTCCTCACATTAACCTACACACACCAT
On to B1, for which the binding result is recorded as “no binding”.
